Source: EP4559937A1 (Universitat de Barcelona, dated 2025)

Target: T1, Recombinant CD7 protein (ACRO biosystems, Cat No CD-H52H7), labeled with Alexa Fluor 647 (UniProt P09564 26-180, limits assumed, Alexa Fluor 647 NHS Ester label, sites not stated)
T1 construct: Bought protein; also called fluorescently labelled CD7; Alexa Fluor 647-labeled CD7
T1 sequence (looked up): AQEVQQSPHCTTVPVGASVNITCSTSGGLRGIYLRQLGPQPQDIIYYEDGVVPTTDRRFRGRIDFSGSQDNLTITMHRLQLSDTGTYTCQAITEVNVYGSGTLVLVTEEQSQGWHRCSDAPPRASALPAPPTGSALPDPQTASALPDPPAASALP
Experiment: microfluidic antibody-affinity profiling (MAAP), Fluidity One-W, hybridoma supernatant with Alexa Fluor 647-labelled CD7, Bayesian inference

B1: 142.24 murine anti-CD7 mAb (antibody, V domains shown)
VH: QLVQSGPEVKKPGETVKISCKASGYSFTHYGVNWVKQAPGKGLKWMGWINTNTGKPTYAEDFKGRFAFSLETSARTAYLQINNLKNEDTATYFCARWSTTVVAPYFDVWGAGTTVTVSS
VL: DILLTQSPAILSVSPGERVSFSCRASQNIGTSIHWFQQRSNGSPSLLIKYASESMSGIPSRFSGSGSGTDFTLSINSVEPEDIADYYCQQSNRWPYTFGGGTKLEIK
notes: Murine monoclonal antibody, tested as hybridoma culture supernatant; also called CD7_142.24
With B1 as the binder, how does the Kd read?
Its Kd is 0.0224 µM.

B2: 142.9 murine anti-CD7 mAb (antibody, V domains shown)
VH: QVQLQQSGAELVRPGTSVKISCKASGYTFTNYWLGWVKQRPGHGLEWIGDFYPGSIYTNYNENFQGKATLTADTSSSTAYMQLSSLTSEDSAVYFCAREGDYYGSGHFDYWGQGTTLTVSS
VL: EILLTQSPAIIAASPGEKVTITCSARSSVSYMNWYQQKSGSSPKIWIYGISNLASGVPARFSGSGSGTSFSFTINSMEAEDVAYYYCQLRSSYSRTFGGGTKLEIK
notes: Murine monoclonal antibody, tested as hybridoma culture supernatant; also called CD7_142.9
With B2 as the binder, how does the Kd read?
Its Kd is 0.0524 µM.

B3: 124.1D1 murine anti-CD7 mAb (antibody, V domains shown)
VH: DVQLQESGPGLVKPSQSLSLTCTVTGYSITSDYAWNWIRQFPGNKLEWLGYISYSGSTSYNPSLKSRISITRDTSKNQFFLQLNSVTTEDTATYYCAKSQLGRWAMDYWGQGTSVTVSS
VL: DILLTQSPAILSVSPGERVSFSCRASQSIGTSIHWYQQRTNDSPRLLIKYASESISGIPSRFSGSGSGTDFTLNINSVESEDIADYYCQQSISWPLTFGPGTKLELK
notes: Murine monoclonal antibody, tested as hybridoma culture supernatant; also called CD7_124.1D1
How did the Kd turn out when B3 was run?
Its Kd is 0.0136 µM.
